Data set [1] concerns the target T1, GST-HBI1 (Arabidopsis thaliana, UniProt Q9ZPW3 1-337).
T1 sequence: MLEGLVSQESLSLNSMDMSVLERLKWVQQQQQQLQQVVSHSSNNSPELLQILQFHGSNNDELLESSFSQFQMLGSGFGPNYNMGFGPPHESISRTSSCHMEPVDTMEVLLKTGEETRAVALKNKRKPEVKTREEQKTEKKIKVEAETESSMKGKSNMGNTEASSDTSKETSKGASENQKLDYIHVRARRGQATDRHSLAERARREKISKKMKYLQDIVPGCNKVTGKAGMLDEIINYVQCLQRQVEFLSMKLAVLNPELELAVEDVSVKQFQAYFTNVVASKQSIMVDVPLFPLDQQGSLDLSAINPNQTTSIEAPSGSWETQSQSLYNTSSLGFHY
As to the kind of experiment: EMSA; 1000x cold probe eliminated the shift; 10 mM Tris pH 7.5, 50 mM KCl, 5 mM MgCl2, 1 mM DTT, 2.5% glycerol, 0.5% NP-40, 50 ng poly(dI-dC), 25 fmol probe in 20 ul, room temperature, 45 min; 6% native PAGE. The following applies: protein: recombinant; tags: GST (N-term, pGEX4T1); chain copies: 2; label: 5' biotin; blunt. For orientation: Mobility shift assays separate free from complexed probe on a gel.

The target of data set [2] is T2, GST-BEE2 (Arabidopsis thaliana, UniProt Q93VJ4 1-304).
T2 sequence: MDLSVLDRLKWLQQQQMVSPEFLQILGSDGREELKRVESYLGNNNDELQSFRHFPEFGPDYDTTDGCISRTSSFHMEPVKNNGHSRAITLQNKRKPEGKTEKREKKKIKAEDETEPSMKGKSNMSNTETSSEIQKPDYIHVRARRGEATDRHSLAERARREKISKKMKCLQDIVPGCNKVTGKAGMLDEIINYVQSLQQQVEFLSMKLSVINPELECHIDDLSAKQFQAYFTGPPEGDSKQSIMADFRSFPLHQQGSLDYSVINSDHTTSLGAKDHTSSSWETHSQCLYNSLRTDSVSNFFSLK
The description is as above. The following applies: protein: recombinant; tags: GST (N-term, pGEX4T1); chain copies: 2; label: 5' biotin; blunt.

Two molecules from paper PMC8219041, “A transcriptional hub integrating gibberellin–brassinosteroid signals to promote seed germination in Arabidopsis” can be followed below.

B1: GASA6 promoter Probe 2 (dsDNA)
DNA 1: GTCTCCCATGTGAGTGCACATGGAGTTATG
DNA 2: CATAACTCCATGTGCACTCACATGGGAGAC
As for B1, the binding result in data set [1] and in data set [2] was “binds” in each case.

B2: GASA6 promoter Probe 1 (dsDNA)
DNA 1: CAATTTTTAATCACAAATGCTATTTTATTGGACGACC
DNA 2: GGTCGTCCAATAAAATAGCATTTGTGATTAAAAATTG
Take B2: the binding result in data set [1] and in data set [2] was “binds” each time.
